{
  "source": "paper PMC8647080",
  "about": "“Evolution of CPEB4 Dynamics Across its Liquid–Liquid Phase Separation Transition” (The Journal of Physical Chemistry. B, 2021)",
  "molecular_target": "the molecule itself",
  "assay": "CW-EPR line shape of the spin label; X band, 2-45 °C, 10-112 μM, 100 mM NaCl, pH 8; spectra simulated with three components (I monomer, II and III in assemblies)",
  "data": [
    {"protein": "spin labeled CPEB4NTD-C441S/G320C (domain or fragment, human, UniProt Q17RY0-2 1-448, looked up, nitroxide spin label on the introduced cysteine 320 (marked * in the paper), also called C441S/G320C CPEB4NTD mutant; source: E. coli BL21(DE3), purified using the same protocol (Ni2+-NTA, Superdex-200)) MGDYGFGVLVQSNTGNKSAFPVRFHPHLQPPHHHQNATPSPAAFINNNTAANGSSAGSAWLFPAPATHNIQDEILGSEKAKSQQQEQQDPLEKQQLSPSPGQEAGILPETEKAKSEENQGDNSSENGNGKEKIRIESPVLTGFDYQEATGLGTSTQPLTSSASSLTGFSNWSAAIAPSSSTIINEDASFFHQGGVPAASANNGALLFQNFPHHVSPGFGGSFSPQIGPLSQHHPHHPHFQHHHSQHQQQRRSPASPHPPPFTHRNAAFNQLPHLANNLNKPPSPWSSYQSPSPTPSSSWSPGGGGYGGWGGSQGRDHRRCLNGGITPLNSISPLKKNFASNHIQLQKYARPSSAFAPKSWMEDSLNRADNIFPFPDRPRTFDMHSLESSLIDIMRAENDTIKARTYGRRRGQSSLFPMEDGFLDDGRGDQPLHSGLGSPHSFSHQNGE", "values": [
      {"measurement": "binding result", "value": "binds"}
    ]}
  ]
}
